This data set can be described thus: soluble on expression in E. coli; label from the status in PepcDB or PDB records.
As for “MNYAEICIIKRDGKREDFSISKIKNAVSKAFSATGINDEQQLIADITMNVIGQFASPTITVEEIQDLVEKELMKVRPEVAKKYIIYREWRNTERDKKTQMKHVMDGIVAIDKNDVNLSNANMSSHTPAGQMMTFASEVTKDYTYKYLLPKRFAEAHQLGDIHIHDLDYYPTKTTTCIQYDMDDLFERGFRTKNGSIRTPQSIQSYATLATIIFQTNQNEQHGGQAIPAFDFFMAKGVSKSFRKHLASFISFYVQMNKGEEIEEKAIRTVIAEHLSSIKASELERETLRMALTALQINIDKEHLNQIIEKAFVQTQKDTHQAMEGFIHNLNTMHSRGGNQVVFSSINYGTDTSAEGRMVIEELLKATVEGLGTRGEVPVFPIQIFKIKNGVSYTEADYEKAMANFDAAMEGKLKFEAPNFDLFLKACHTTAKALFPNFMFLDAPFNQNEKWDANDPQRYRYELATMGCRTRVFENVAGEKSSLGRGNLSFTTLNMPRLAIEARIKAENMTEDGHNKDAVERKAKEIFIESIHETATLIAEQLYERYQYQRTALARQFPFMMGNDVWKGGAALNPNEQVGDVLRSGTLGIGFLGGHNAMVALYGEGHGHSQKAWDTLYEAVLEINKVADEYKAKYNLNYSVLATPAEGLSGRFTRMDRRKYGKIKGVTDNDYYVNSFHVDVKEPISIVEKIKREAPFHAITRGGHITYVELDGEAQKNVRAIAKIVKVMFDEGIGYGSINHPVDTCHNCGYKGVIYDKCPVCQSENILRMRRITGYLTGDLSSWNSAKRAEEKDRVKHG”, the “soluble on expression in E. coli” value is “not soluble”.

As to “MNYDAKQPPANLADSIQQKETVQALYDLLDKNMADFDASLAGMDKAETADLKEVSDTREIYDFIRYHYGEFGQREAELLLRMENPLNFIVENWPCHNLETLAMNYLADKTIKEPNKKEMPQSGHDTKDAEKPSILKQIKTNQGQIKANRQETRQQSITAERPRDGEAR”, the “soluble on expression in E. coli” value is reported as “not soluble”.

As for “MNYEGKTKIVKVTGDYALLEFKDDITAGDGLKHDVLTGKGSICAETTAILMKYLSEKGIKTHLVEYIPPRTLKVIPLKMFPLEVVVRLKKAGSFVRRYGGAEGEDLPVPLVEFFIKDDERHDPMVCVDHLEILGIATKKQAEKMKEAAVKITLALKEFFERANFELWDIKYEFGLDKDGNVVLGDEISPDTFRLRKKGEIFDKDVYRRDLGDPLKKYREVLELCRSLNSQ”, the “soluble on expression in E. coli” value is “soluble”.

With “MNYKLTLHPGSNPVEEFTSIPHGVTSLDLSLNNLYSISTVELIQAFANTPASVTSLNLSGNSLGFKNSDELVQILAAIPANVTSLNLSGNFLSYKSSDELVKTLAAIPFTITVLDLGWNDFSSKSSSEFKQAFSNLPASITSLNLRGNDLGIKSSDELIQILAAIPANVNSLNLRGNNLASKNCAELAKFLASIPASVTSLDLSANLLGLKSYAELAYIFSSIPNHVVSLNLCLNCLHGPSLENLKLLKDSLKHLQTVYLDYDIVKNMSKEQCKALGAAFPNIQKIILVDKNGKEIHPSHSIPISNLIRELSGKADVPSLLNQCLIFAQKHQTNIEDLNIPDELRESIQTCKPLLEHHHHHH”, the “soluble on expression in E. coli” value is listed as “soluble”.

In the case of “MNYLERLVESWPVEQCSAAVVTSDEVTTAGDGNIRYELASVTKLLSTYAVLIAVEEGAFALDTPCGPEGATVRHLLAHASGVGFRSTDACKAPEQRRIYSSYGFELLADVIAHEADMPFAQYLDEAVCQPIGMTHTQLWGSAGHESYSTVNDLVLFAREILQPSLIAQETLVQACTVQFPELHGIVPGYGMYKPCPWGLGFEIKGEKNPHWTAAVMPHTTVGHFGQAGTYLWVDRESQRAMVALTNRSFGDWAKPLWAETNAGVWEHLDQLNL”, the “soluble on expression in E. coli” value is “not soluble”.

As to “MNYYMHHIGDYKSDASYLSLQEHGIYFLLLSHYYATEKPIPADKTHTYRIAYARTKKEKSAVDFVLDTFFSLQEDGWHNKRCDEEIAAYKEGDAWHEHKEANKNGQNTRTRRHRKERSRLFAELKDHQVTPEWNMPIKELRLLHKKTCHAPVTAVTPPVTPVTPVTPVTPVTPTQEESFTGPSSSLRSEERLIRAENETSIKELRQWNAKTNAKTGNAPVTAVTAKPLTINPLTIISSSLCSEESLVFAEDGNATGSTGKPKRSPHGSRLPDD”, the “soluble on expression in E. coli” value is given as “not soluble”.

“MPADRVAFPPTLIGIELDPRQGLSKQLYEILRRQILDGRLSSGMRLPASRDLAKSLAISRNSVMRAFDQLYAEGFIEGRVGDGTYVAQLAGRHAALQRNAPGKLSTNLPTGLHTGLCTGLSTFAVENTQNLLNQVIHNPALQRVEKHHLNEPPDDRPKAFRVGVPAFDLFPFALWGKLYASFWRKPNLDQLGYGAAAGEWRLRELVAAYLRSSRGLGCTAEQIVITSGAQHAISLCAQLLVTPGEGVAVENPGYRAAGHAFALAGARLQGVAVDSEGMRCADLEQTDCRLAYVTPSHQYPTGVVMSLARRLELLAWAEKNQSWIVEDDYDGEYRYSGSPLAPLAALDQNGRVLYVGTFGKIVFPALRLGYLVLPEHLVRPFSQRKAVDMRHTEIGVQAVMAQFIAQGHFQRHIRRMRRAALSRRDALLAGWPDNVPGCAAMPKVVAGLHVMVKVDSVAREQALIAKARSVGVEMSPLSGYWLSDSDEPVDNRAGLVLGFAAVPEPAIADALNRLRMVWSE”: the “soluble on expression in E. coli” value is listed as “not soluble”.

“MPAHRSDPTSSVIELNDVVFCWPGASSPTLDIAHLQIARGEHLFVKGPSGCGKSTLLSLLTGINTATQGVVSLLGSDLSRLSASQRDRFRADHIGYIFQQFNLLPYLSVLDNVTLPCHFSALRKQQVDGPLSHKAQSLLERLHLPSALLNKPVTELSIGQQQRVAAARALMGEPQLIIADEPTSALDYDNREAFIALLREEAERVGSTLVFVSHDPTLEKLFERSVHLPTLNRAGGWQ”: the “soluble on expression in E. coli” value is reported as “not soluble”.

For “MPANGGRGVGEGESPVSFFERLKAGLQKTKEALIGQVNTVMSVFRKIDDDLFDELEEALIRGDVGVATSAKLVEELRREARQKGLKNGDELLPLLKELVAERLGSGAAPLRLNEGGLTVILVVGVNGVGKTTTIGKLARHLREDRGLKVVLAAADTFRAAAMDQLKVWGERAGAEVVTGPEGADPAAVAFDGVKAARASGADVLIVDTAGRLHNKAHLMAELGKIARVLGREVPGAPHETLLVLDATTGQNAIQQTRLFKETVPVTGIALTKLDGTAKGGVVVAIADTEQVPVKFIGVGERLDDLQPFDPRQFVEALFSE”, the “soluble on expression in E. coli” value was “soluble”.

For the sequence “MPAPEAPTSTLPPERPLTNLQQQIQQLVSRQPNLTAGLYFFNLDSGASLNVGGDQVFPAASTIKFPILVAFFKAVDEGRVTLQERLTMRPDLIAPEAGTLQYQKPNSQYAALEVAELMITISDNTATNMIIDRLGGAAELNQQFQEWGLENTVINNPLPDMKGTNTTSPRDLATLMLKIGQGEILSPRSRDRLLDIMRRTVTNTLLPAGLGKGATIAHKTGDIGIVVGDAGMVDMPNGQRYVAAMMVKRPYNDPRGSELIRQVSRMVYQAFEKLSPPEQKLISEEDLNSAVDHHHHHH”, the “soluble on expression in E. coli” value was “soluble”.

Take “MPAPLTFARLTQVDPNLITAHMRDPRLAIHMPLMPDSWSDAQTVSFVQSKEACWDRDGLGHWAFLHQDRYVGWGGFQREGEEWDFGLVLCPAHFGLGLPIARKALDFAHADPRIPFVTFLLPPSRQHLGALRRLGAQPLGETDHAGHRFLKFRLDTA”: the “soluble on expression in E. coli” value was “not soluble”.

With “MPASVTHVIFDFDGLLVDTESAYTEANMELLRKYGHVFTMDLKRRQMGKRHDESIRWLINELKIGDLVTPEEYSRQYDELLIEMFKRSPAMPGAEKLVRHLLHTGVPVALCTGSCSRTFPTKLDNHKDWVNMIKLQVLSGDDPEVKHGKPHPDPFLVTMKRFPQVPESADKVLVFEDSYNGVLSALDAGMQCVMVPERSIFDPDSDPEFKNRVTVILNSLEQFKPEDFGLPPY”, the “soluble on expression in E. coli” value is recorded as “not soluble”.

As for “MPAYKYNRVFLIVMDSVGIGEAPDAADFNDEGAHTLGHIAEHMNGLHMPNMAKLGLGLIEDIKGVEKTEHPLAYYGKLQEASNGKDTMTGHWEIMGLYIDKPFKVFPEGFPDELLQELEKRSGRKIIGNKPASGTAILDELGQEHMETGALIVYTSADSVLQIAAHEEVVPLEELYRICETARELTLDPKYMVGRIIARPFVGEPGQFKRTPNRHDYALKPFDRTVMNELKDCGLDVISIGKISDIYDGEGITSSRRTVSNMDGMDKVIDTLGEDFTGLSFANLVDFDALFGHRRDPEGYGRALEEFDARLPEVFGKMREDDLLIITADHGNDPIHHGTDHTREYVPILAYSKKHKKAQMLPLADTFADIGATIADNFQTNKPKYGKSFLSLLQ”, the “soluble on expression in E. coli” value is recorded as “not soluble”.

Regarding “MPCQSKKNPSEVHISSGRDLVQRTFVFSNTTGKDFLLKLITSSEAISFPTNIFRFPPSSHRVIQFRVNSSKLSHWDKLNMSIKGYVMPIYAKNLKQFIDQKSTAGTQDQEAFSLAVKFTDQYSAPQVLINLPGSATCIESMDHPVGIEELDTITAVNIEKDALTAAPIGNLMGFVEEYKRRNTNKGGCWLSNYICGGEEEQKEKKSIRGASRRSSRSSKKSAKSAGSSSCRSQSRKKNKKSQVNVCLEATPCGGSTIQA”, the “soluble on expression in E. coli” value was “not soluble”.

“MPCVQAQYSPSPPGSTYATQTYGSEYTTEIMNPDYAKLTMDLGSTGIMATATTSLPSFSTFMEGYPSSCELKPSCLYQMPPSGPRPLIKMEEGREHGYHHHHHHHHHHHHHHQQQQPSIPPPSGPEDEVLPSTSMYFKQSPPSTPTTPGFPPQAGALWDDELPSAPGCIAPGPLLDPQMKAVPPMAAAARFPIFFKPSPPHPPAPSPAGGHHLGYDPTAAAALSLPLGAAAAAGSQAAALEGHPYGLPLAKRTATLTFPPLGLTASPTASSLLGESPSLPSPPNRSSSSGEGTCAVCGDNAACQHYGVRTCEGCKGFFKRTVQKNAKYVCLANKNCPVDKRRRNRCQYCRFQKCLSVGMVKEVVRTDSLKGRRGRLPSKPKSPLQQEPSQPSPPSPPICMMNALVRALTDATPRDLDYSRYCPTDQATAGTDAEHVQQFYNLLTASIDVSRSWAEKIPGFTDLPKEDQTLLIESAFLELFVLRLSIRSNTAEDKFVFCNGLVLHRLQCLRGFGEWLDSIKDFSLNLQSLNLDIQALACLSALSMITERHGLKEPKRVEELCNKITSSLKDHQRKGQALEPSEPKVLRALVELRKICTQGLQRIFYLKLEDLVSPPSVIDKLFLDTLPF”: the “soluble on expression in E. coli” value is reported as “soluble”.

With “MPDEKDKHEGTWLQWPHEYTYGEEYKKEVEPIWVKMASALTEGEKVHIVAYDQEEKERINNLLTDEGLNMEKIDFFIAPTDDVWARDSGPIFVYDSNKNLKILDPAFNGWGKKTPYKNDAQIRKNVSKQSGIERVDWGKFVLEGGAIELDSNGTALLTRSAVTNKNRNPDLSEKEIEKYISDLGVSNFIWLDGVPNLDITDFHIDGFAKFHNKSTIVTMKEDDLAEWGLSNKDMDTLLDAKNASGQKYKYEYLPLSKEKVALENGKTLDYKGSYINYYIGNTVVLVPNYNDPNDKIANDTIQKLYPDRKVVGIDVRELYKNGGMIHCVTQQQPIALK”, the “soluble on expression in E. coli” value is “not soluble”.

Regarding “MPDGWRKMGVLVFYDLPVVSPEQRLAAVRFHKFLLADGFERMHYSIYARYCGSMERAATYERRVEQALPAVGHVNLLKLTDRQMVGMRKWIRGNYRAPENAEFVPPAQYQLFLEHHHHHH”, the “soluble on expression in E. coli” value is listed as “not soluble”.

Take “MPDPQGGEIVYVGGTLLDLNRYELYYQFDFTAKYEITEEDTRQAEDVNALPDLSLLSIDVDYIDPGTGPDGDIEHHLEMRFPQN”: the “soluble on expression in E. coli” value is reported as “not soluble”.
